Assays:
[1] = molecular target: T1, human TNFR1 on cells (HT1080, HeLa, Kym-1) (human, UniProt P19438 30-455); assay: cell-based or functional assay
T1 sequence (looked up): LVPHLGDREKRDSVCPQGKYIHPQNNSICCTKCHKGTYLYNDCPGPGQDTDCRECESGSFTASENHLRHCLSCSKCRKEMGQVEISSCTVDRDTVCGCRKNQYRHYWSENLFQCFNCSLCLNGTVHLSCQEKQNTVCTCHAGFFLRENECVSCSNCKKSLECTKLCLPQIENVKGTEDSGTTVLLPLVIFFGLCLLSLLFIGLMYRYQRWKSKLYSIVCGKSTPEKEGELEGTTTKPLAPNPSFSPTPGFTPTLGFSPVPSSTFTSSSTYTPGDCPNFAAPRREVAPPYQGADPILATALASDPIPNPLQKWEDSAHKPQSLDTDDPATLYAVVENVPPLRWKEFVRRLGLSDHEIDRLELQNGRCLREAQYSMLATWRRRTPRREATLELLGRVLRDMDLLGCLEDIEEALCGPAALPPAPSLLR

[2] = molecular target: T2, human TNFR1-Fc fusion protein (human, UniProt P19438 29-211); assay: ELISA on coated human TNFR1-Fc, reference curve next to Fv13.7-Fckih0DS
T2 construct: range 29-211; Made in stably transfected HEK293 cells; coated on ELISA plates or immobilised on QCM chips; also called huTNFR1-Fc; human TNFR-Fc; not shown: Fc part from vector pSecTagL1-Fc
T2 sequence (looked up): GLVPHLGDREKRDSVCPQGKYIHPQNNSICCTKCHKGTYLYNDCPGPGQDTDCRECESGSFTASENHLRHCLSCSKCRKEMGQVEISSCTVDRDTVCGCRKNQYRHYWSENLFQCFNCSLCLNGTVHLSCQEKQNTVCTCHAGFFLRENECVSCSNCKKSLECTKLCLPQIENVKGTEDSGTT
Description: (§1) Microtiter plates were coated with 100 µl of the indicated protein (1 µg/ml in PBS, see Table 3.3) and incubated at 4° C. over night. The residual binding sites were blocked with 2% MPBS (skim milk in PBS, 200 µl per well) at room temperature for 2 hours and subsequently washed twice with PBS. 100 µl of the samples diluted in 2% MPBS were incubated at room temperature for 1 hour prior to the last incubation step with 100 µl of the HRP conjugated detection antibodies in 2% MPBS. In the case of competition experiments, both analyzed protein samples were prepared individually (either titrated or diluted to a single concentration) and mixed before they were applied to the plate. Bound protein was detected with 100 µl TMB substrate solution, the HRP-reaction was stopped by the addition of 50 µl 1 M H2SO4 and the absorption at the wavelength of 450 nm was measured using the Infinite microtiter plate reader (TECAN, Maennedorf, Switzerland). Between each incubation step and in advance of the detection, the plates were washed three times with PBST and twice with PBS.

[3] = molecular target: T2, human TNFR1-Fc fusion protein; assay: standard ELISA, human TNFR1-Fc
Description: (§2) FIG. 1. […] Applied were triplicates of five concentrations between 3.9 nM and 62.5 nM.
as §1

[4] = molecular target: T2, human TNFR1-Fc fusion protein; assay: QCM, human TNFR1-Fc, moderate receptor density (86 Hz), biphasic fit, koff2 (high-affinity part)
Description: (§3) Real-time binding dynamics in protein-protein interactions were determined by quartz crystal microbalance measurements (A-100 C-Fast or Cell-200 C-Fast, Attana, Stockholm, Sweden). One of the binding partners (ligand, e.g. TNFR1-Fc) was chemically immobilized on a carboxyl sensor chip according to the manufacturer's protocol at different densities (nearly 200 Hz in the case of saturating conditions to confirm previously published results and 50-100 Hz, in particular at about 50 Hz, to establish conditions of lower receptor density, better resembling the situation on the cellular surface). Binding experiments were performed with samples (analyte) diluted in PBST (PBS, 0.1% Tween 20) at pH 7.4 with a flow rate of 25 µl/min at 37° C. The chip was regenerated with 25 µl 5 mM NaOH or 20 mM glycine, pH 2.0. Every third measurement, an injection of running buffer was measured which was subtracted from the binding curve. Data were collected using the software provided by Attana for the particular device and analyzed by Attaché Office Evaluation software (Attana, Stockholm, Sweden) and TraceDrawe (ridgview instruments, Vange, Sweden).

[5] = molecular target: T2, human TNFR1-Fc fusion protein; assay: QCM, human TNFR1-Fc, moderate receptor density (86 Hz), biphasic fit, koff1 (low-affinity part)
Description: as §3

[6] = molecular target: T2, human TNFR1-Fc fusion protein; assay: ELISA, human TNFR1-Fc
[7] = molecular target: T2, human TNFR1-Fc fusion protein; assay: ELISA on coated huTNFR1-Fc, antibody titrated, signal as Binding [%]
Description: FIG. 13. […] Increasing concentrations were tested for their binding to huTNFR1-Fc in ELISA (n=3, mean±SD).
as §1

[8] = molecular target: T1, human TNFR1 on cells (HT1080, HeLa, …); assay: cell-based or functional assay; remark: listed apart in the source
[9] = molecular target: T2, human TNFR1-Fc fusion protein; assay: QCM, human TNFR1-Fc, moderate receptor density (86 Hz), biphasic fit, kon1 (low-affinity part)
Description: as §3

[10] = molecular target: T2, human TNFR1-Fc fusion protein; assay: QCM, human TNFR1-Fc immobilised, low receptor density (48 Hz)
Description: as §3

[11] = molecular target: T2, human TNFR1-Fc fusion protein; assay: QCM, human TNFR1-Fc immobilised, high receptor density (195 Hz)
Description: as §2, §3

[12] = molecular target: T2, human TNFR1-Fc fusion protein; assay: QCM, human TNFR1-Fc, moderate receptor density (86 Hz), biphasic fit, kon2 (high-affinity part)
Description: as §3

B1: ATROSAB (antibody, IgG1, V domains shown)
VH: QVQLVQSGAEVKKPGSSVKVSCKASGYTFTDFYINWVRQAPGQGLEWIGEIYPYSGHAYYNEKFKARVTITADKSTSTAYMELSSLRSEDTAVYYCARWDFLDYWGQGTTVTVSS
VL: DIVMTQSPLSLPVTPGEPASISCRSSQSLLHSNGNTYLHWYLQKPGQSPQLLIYTVSNRFSGVPDRFSGSGSGTDFTLKISRVEAEDVGVYYCSQSTHVPYTFGGGTKVEIKR
notes: Humanized full-length IgG1 with a modified Fc region deficient in mediating effector functions (made according to WO2012035141); also called full length IgG ATROSAB
- IC50, Cytotox (nM); inhibition of Kym-1 cell death by 0.01 nM TNF [1]: 24 nM
- IC50, IL-6 (nM); inhibition of the response of HeLa cells to 0.1 nM TNF [1]: 179 nM
- IC50, IL-8 (nM); inhibition of the response of HT1080 cells to 0.1 nM TNF [1]: 118 nM
- IL-6 release (pg/ml), HeLa cells [1]: 231 pg/mL
- IL-8 release (pg/ml), HT1080 cells [1]: 240 pg/mL
- EC50 (read off the curve) [2]: ~0.2 nM
- EC50 [3]: 0.25 nM
- Factor (EC50, ATROSAB against H398) [3]: 1.7 fold
- koff [4]: 0.000407 s⁻¹
- koff [5]: 0.0219 s⁻¹
- fold weaker binding (higher EC50) compared with IgG13.7 [6]: 1.4 fold
- EC50 (read off the curve) [7]: ~1 nM
- Factor, IC50 LT (ATROSAB against H398) [8]: 12 fold
- Factor, IC50 TNF (ATROSAB against H398) [8]: 10 fold
- IC50, LT [nM] (inhibition of IL-8 release from HT1080 cells induced by LTα) [8]: 7.6 nM
- IC50, TNF [nM] (inhibition of IL-8 release from HT1080 cells induced by 0.1 nM TNF) [8]: 42 nM
- kon [9]: 282000 M⁻¹ s⁻¹
- Factor (KD low density chip, ATROSAB against H398) [10]: 2.8 fold
- Factor (koff low density chip, ATROSAB against H398) [10]: 7.6 fold
- Kd [10]: 4.5 nM
- fold faster kon than H398 [10]: 2.6 fold
- koff [10]: 0.0047 s⁻¹
- Factor (KD high density chip, ATROSAB against H398) [11]: 1.5 fold
- Kd [11]: 0.35 nM
- kon [12]: 1.06e+06 M⁻¹ s⁻¹

Reference: patent US10689452 (UNIVERSIT T STUTTGART, dated 2020)
